Assay [1] deals with T1, AP4E1 (human, UniProt Q9UPM8 1-1137, limits assumed).
T1 sequence (looked up): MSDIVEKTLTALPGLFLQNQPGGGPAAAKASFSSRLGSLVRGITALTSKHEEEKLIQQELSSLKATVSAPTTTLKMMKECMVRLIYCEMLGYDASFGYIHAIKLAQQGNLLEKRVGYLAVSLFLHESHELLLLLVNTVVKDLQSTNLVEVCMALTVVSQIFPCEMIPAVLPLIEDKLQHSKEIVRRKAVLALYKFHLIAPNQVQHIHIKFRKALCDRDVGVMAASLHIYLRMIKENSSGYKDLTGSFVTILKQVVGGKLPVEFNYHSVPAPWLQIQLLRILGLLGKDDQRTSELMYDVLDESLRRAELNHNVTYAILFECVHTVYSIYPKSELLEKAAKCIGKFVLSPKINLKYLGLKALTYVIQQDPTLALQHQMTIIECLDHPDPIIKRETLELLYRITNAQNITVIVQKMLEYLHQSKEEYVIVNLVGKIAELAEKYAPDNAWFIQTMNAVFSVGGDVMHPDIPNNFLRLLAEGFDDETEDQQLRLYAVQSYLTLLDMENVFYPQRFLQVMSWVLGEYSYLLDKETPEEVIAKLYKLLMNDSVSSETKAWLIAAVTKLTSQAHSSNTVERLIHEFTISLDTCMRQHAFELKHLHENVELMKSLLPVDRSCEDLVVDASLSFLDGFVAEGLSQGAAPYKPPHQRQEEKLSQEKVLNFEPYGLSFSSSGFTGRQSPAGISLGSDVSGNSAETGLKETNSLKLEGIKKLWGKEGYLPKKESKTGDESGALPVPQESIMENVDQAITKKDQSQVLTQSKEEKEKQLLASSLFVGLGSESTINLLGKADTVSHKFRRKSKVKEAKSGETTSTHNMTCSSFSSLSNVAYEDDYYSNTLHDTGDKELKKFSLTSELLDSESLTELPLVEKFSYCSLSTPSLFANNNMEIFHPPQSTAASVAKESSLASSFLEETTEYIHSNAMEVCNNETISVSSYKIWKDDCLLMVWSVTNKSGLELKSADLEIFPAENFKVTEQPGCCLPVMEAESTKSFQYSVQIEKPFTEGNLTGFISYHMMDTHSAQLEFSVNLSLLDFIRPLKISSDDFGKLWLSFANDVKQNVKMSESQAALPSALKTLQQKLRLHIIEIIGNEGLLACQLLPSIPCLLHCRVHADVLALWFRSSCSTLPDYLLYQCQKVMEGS
Briefly: IP/MS, LZTR1 R810W-FLAG, U87. An outline of the steps: (§1)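 Read-out: spectral counts from LC-MS/MS (Orbitrap Fusion) after MaxQuant identification. Variable modifications were Met oxidation, protein N-terminal acetylation and N/Q deamidation.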

In assay [2] the target is RUSC2 (human, UniProt Q8N2Y8 1-1516). Briefly: IP/MS, LZTR1 R810W-FLAG, U87. An outline of the steps:
as §1

Data on 1 molecule can be found in patent US20250262210A1 (TRUSTEES OF COLUMBIA UNIVERSITY IN THE CITY OF NEW YORK, published 2025).

Chain of RUSC2 (Q8N2Y8 whole entry): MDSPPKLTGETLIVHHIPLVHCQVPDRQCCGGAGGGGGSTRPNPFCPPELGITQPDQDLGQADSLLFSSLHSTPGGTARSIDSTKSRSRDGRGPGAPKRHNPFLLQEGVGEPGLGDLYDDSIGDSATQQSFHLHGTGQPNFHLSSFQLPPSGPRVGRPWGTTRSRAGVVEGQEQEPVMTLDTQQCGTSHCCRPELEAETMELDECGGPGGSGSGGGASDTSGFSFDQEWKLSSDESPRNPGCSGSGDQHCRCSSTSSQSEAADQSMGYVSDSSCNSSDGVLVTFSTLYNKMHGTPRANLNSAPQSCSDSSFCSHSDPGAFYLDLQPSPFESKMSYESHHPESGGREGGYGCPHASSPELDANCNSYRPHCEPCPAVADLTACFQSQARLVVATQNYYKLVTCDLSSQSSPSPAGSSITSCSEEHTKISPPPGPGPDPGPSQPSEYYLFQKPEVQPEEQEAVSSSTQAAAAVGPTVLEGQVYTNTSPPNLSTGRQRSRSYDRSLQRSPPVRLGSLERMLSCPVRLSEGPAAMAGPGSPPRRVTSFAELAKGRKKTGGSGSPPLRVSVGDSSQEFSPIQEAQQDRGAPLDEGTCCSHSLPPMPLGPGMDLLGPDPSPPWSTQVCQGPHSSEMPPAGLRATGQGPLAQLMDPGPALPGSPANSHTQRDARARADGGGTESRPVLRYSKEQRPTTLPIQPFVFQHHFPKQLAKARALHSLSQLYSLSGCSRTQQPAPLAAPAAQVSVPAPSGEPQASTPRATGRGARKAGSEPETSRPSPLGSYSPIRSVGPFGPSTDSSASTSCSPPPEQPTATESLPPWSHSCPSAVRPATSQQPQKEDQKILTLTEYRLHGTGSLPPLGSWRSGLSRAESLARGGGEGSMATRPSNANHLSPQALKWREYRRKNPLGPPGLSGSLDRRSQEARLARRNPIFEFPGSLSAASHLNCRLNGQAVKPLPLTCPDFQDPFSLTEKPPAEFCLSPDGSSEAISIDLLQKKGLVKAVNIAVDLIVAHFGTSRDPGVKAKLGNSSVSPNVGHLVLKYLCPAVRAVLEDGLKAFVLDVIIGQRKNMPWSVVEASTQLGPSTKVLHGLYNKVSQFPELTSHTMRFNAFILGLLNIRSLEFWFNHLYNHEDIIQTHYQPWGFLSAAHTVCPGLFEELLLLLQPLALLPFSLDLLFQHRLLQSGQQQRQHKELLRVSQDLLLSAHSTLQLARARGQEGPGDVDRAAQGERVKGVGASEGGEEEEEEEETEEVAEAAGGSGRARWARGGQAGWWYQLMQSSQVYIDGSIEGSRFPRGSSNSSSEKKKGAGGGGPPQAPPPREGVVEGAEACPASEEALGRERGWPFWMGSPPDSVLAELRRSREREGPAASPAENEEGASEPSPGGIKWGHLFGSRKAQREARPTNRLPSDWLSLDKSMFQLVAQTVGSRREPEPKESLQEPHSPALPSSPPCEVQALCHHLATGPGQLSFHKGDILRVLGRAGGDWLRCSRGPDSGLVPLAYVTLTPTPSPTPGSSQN

B1: LZTR1 R810W-FLAG (other, human, UniProt Q8N653 1-840, looked up)
chain: MAGPGSTGGQIGAAALAGGARSKVAPSVDFDHSCSDSVEYLTLNFGPFETVHRWRRLPPCDEFVGARRSKHTVVAYKDAIYVFGGDNGKTMLNDLLRFDVKDCSWCRAFTTGTPPAPRYHHSAVVYGSSMFVFGGYTGDIYSNSNLKNKNDLFEYKFATGQWTEWKIEGRLPVARSAHGATVYSDKLWIFAGYDGNARLNDMWTIGLQDRELTCWEEVAQSGEIPPSCCNFPVAVCRDKMFVFSGQSGAKITNNLFQFEFKDKTWTRIPTEHLLRGSPPPPQRRYGHTMVAFDRHLYVFGGAADNTLPNELHCYDVDFQTWEVVQPSSDSEVGGAEVPERACASEEVPTLTYEERVGFKKSRDVFGLDFGTTSAKQPTQPASELPSGRLFHAAAVISDAMYIFGGTVDNNIRSGEMYRFQFSCYPKCTLHEDYGRLWESRQFCDVEFVLGEKEECVQGHVAIVTARSRWLRRKITQARERLAQKLEQEAAPVPREAPGVAAGGARPPLLHVAIREAEARPFEVLMQFLYTDKIKYPRKGHVEDVLLIMDVYKLALSFQLCRLEQLCRQYIEASVDLQNVLVVCESAARLQLSQLKEHCLNFVVKESHFNQVIMMKEFERLSSPLIVEIVRRKQQPPPRTPLDQPVDIGTSLIQDMKAYLEGAGAEFCDITLLLDGHPRPAHKAILAARSSYFEAMFRSFMPEDGQVNISIGEMVPSRQAFESMLRYIYYGEVNMPPEDSLYLFAAPYYYGFYNNRLQAYCKQNLEMNVTVQNVLQILEAADKTQALDMKRHCLHIIVHQFTKVSKLPTLWSLSQQLLLDIIDSLASHISDKQCAELGADI
notes: Stably expressed in U87 cells by lentivirus; also called LZTR1-FLAG-R810W; LZTR1 RW; not shown: FLAG tag
With B1, the binding result in assay [1] and in assay [2] was “binds” each time.
